One data set concerns the target CLOCK:BMAL1 heterodimer (Homo sapiens, UniProt O15516;O00327 O15516:1-846,O00327:1-626). The experiment in a line: EMSA; 150 mM KCl, 20 mM Tris-HCl pH 7.6, 5 mM MgCl2, 200 ng poly(dI-dC), 4 C; RXRa/RARa with 9cisRA/tRA tested as inhibitors; gel result not shown in text. To be noted: tags: reticulocyte lysate (TNT), CMX plasmids; label: 32P. From the text:
(§1) A double-stranded [γ³²P]dATP-labeled consensus oligonucleotide, […] […] The samples were loaded directly onto 4% polyacrylamide-TBE gels to separate MOP4/CLOCK:BMAL1 bound DNA from free DNA. The gels were dried and analyzed on a PhosphorImager.
In general terms: In EMSA bound probe runs differently from free probe, usually more slowly.

For data set [1], the target named is MOP4 (NPAS2):BMAL1 heterodimer (Homo sapiens, UniProt Q99743;O00327 Q99743:1-824,O00327:1-626). Described as above. To be noted: tags: reticulocyte lysate (TNT), CMX plasmids; label: 32P.
Excerpt: as §1

MOP4 (NPAS2):BMAL1 heterodimer, sequence (Q99743 whole entry, chain 1 of 2): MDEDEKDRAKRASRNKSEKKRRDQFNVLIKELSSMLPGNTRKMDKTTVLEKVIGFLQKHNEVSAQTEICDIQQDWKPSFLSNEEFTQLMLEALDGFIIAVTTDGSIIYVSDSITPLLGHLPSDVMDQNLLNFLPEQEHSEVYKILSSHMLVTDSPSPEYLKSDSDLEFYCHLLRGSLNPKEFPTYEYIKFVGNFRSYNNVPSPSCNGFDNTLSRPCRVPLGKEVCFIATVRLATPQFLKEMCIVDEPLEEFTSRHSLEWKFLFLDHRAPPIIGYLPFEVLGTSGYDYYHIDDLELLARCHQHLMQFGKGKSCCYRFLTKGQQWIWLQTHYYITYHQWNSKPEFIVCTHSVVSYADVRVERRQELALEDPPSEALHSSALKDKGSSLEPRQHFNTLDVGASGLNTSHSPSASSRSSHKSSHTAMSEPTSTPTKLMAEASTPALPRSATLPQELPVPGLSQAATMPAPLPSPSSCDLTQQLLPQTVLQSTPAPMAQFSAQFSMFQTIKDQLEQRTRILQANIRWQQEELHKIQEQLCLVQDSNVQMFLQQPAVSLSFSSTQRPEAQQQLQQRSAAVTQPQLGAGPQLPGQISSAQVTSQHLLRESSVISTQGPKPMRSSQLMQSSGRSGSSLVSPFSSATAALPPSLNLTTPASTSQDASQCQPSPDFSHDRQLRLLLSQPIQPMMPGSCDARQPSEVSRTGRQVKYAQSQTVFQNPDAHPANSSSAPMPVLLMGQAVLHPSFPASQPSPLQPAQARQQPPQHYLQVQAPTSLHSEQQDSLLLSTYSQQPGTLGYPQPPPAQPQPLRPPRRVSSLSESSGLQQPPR
MOP4 (NPAS2):BMAL1 heterodimer, sequence (O00327 whole entry, chain 2 of 2): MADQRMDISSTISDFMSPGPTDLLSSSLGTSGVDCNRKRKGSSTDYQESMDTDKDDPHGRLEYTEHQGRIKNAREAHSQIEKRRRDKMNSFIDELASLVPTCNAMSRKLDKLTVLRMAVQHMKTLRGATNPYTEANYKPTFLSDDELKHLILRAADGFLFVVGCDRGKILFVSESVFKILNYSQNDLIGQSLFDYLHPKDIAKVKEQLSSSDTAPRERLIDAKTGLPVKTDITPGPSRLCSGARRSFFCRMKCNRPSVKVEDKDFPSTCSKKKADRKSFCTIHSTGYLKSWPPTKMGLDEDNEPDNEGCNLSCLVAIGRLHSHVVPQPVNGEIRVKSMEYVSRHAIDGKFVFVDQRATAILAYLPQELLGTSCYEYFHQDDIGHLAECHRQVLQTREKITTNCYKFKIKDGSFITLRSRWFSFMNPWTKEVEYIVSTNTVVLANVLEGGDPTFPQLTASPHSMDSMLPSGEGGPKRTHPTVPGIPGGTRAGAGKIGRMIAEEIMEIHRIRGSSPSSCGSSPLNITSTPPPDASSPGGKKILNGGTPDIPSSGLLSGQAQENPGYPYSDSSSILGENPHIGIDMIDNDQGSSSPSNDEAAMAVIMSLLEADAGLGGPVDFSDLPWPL
CLOCK:BMAL1 heterodimer, sequence (O15516 whole entry, chain 1 of 2): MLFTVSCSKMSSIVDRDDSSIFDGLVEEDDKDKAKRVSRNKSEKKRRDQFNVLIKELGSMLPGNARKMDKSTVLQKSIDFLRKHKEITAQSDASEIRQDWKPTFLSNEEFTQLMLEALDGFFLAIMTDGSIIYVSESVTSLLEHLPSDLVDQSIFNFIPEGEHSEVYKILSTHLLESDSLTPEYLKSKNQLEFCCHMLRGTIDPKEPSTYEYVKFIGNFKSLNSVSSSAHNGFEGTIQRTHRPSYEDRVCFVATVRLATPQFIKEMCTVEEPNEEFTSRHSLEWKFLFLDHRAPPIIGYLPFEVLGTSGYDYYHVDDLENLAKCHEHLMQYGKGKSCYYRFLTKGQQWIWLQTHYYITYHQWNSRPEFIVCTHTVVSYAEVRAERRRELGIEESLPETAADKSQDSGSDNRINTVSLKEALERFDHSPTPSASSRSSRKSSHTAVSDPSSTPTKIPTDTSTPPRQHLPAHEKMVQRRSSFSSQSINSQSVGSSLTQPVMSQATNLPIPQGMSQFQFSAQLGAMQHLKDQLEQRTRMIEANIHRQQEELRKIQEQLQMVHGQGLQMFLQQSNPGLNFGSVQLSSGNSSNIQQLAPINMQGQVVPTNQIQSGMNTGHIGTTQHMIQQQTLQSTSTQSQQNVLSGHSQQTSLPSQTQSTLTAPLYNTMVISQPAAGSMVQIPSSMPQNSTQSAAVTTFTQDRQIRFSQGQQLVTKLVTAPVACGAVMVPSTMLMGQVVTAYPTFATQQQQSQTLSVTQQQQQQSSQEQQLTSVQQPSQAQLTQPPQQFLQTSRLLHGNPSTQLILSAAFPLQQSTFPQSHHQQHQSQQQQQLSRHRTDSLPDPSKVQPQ
CLOCK:BMAL1 heterodimer, sequence (O00327 whole entry, chain 2 of 2): as the sequence (O00327 whole entry, chain 2 of 2) above

B1: E-box consensus oligonucleotide (dsDNA)
DNA 1: GGGACACGTGACCC
DNA 2: GGGTCACGTGTCCC
B1: the binding result (in the data set with CLOCK:BMAL1 heterodimer; in data set [1]) was “binds” each time.

For the origin of these results see US20020151590, “Compositions and methods for regulating circadian rhythyms” (published 2002).
